# Results published in paper PMC7950132 (Molecular & Cellular Proteomics : MCP, 2021).
# B1: Ariadne RBR E3 ubiquitin protein ligase 2 (ARIH2) (enzyme, human, UniProt O95376 1-493, looked up)
# chain: MSVDMNSQGSDSNEEDYDPNCEEEEEEEEDDPGDIEDYYVGVASDVEQQGADAFDPEEYQFTCLTYKESEGALNEHMTSLASVLKVSHSVAKLILVNFHWQVSEILDRYKSNSAQLLVEARVQPNPSKHVPTSHPPHHCAVCMQFVRKENLLSLACQHQFCRSCWEQHCSVLVKDGVGVGVSCMAQDCPLRTPEDFVFPLLPNEELREKYRRYLFRDYVESHYQLQLCPGADCPMVIRVQEPRARRVQCNRCNEVFCFKCRQMYHAPTDCATIRKWLTKCADDSETANYISAHTKDCPKCNICIEKNGGCNHMQCSKCKHDFCWMCLGDWKTHGSEYYECSRYKENPDIVNQSQQAQAREALKKYLFYFERWENHNKSLQLEAQTYQRIHEKIQERVMNNLGTWIDWQYLQNAAKLLAKCRYTLQYTYPYAYYMESGPRKKLFEYQQAQLEAEIENLSWKVERADSYDRGDLENQMHIAEQRRRTLLKDFHDT
# notes: ARIH2, human, codon-optimised synthetic gene; also called ARIH2 RBRL; source: E. coli BL21, purified (Ni-NTA, SEC); not shown: His6, N-terminal, cleaved; MBP, N-terminal, cleaved
# Target: T1, CUL5(NEDD8) (human, UniProt Q93034 1-780; Q15843 1-76, NEDD8 attached at K724)
# T1 construct: cullin 5, human; NEDD8, human, conjugated to CUL5; Always present together with RBX2 and ELOB/C in the experiments; written alone for the pairs inside the complexes; The His tag on CUL5 served the Ni-NTA step before TEV cleavage; also called neddylated CUL5; source: E. coli BL21, coexpressed with RBX2 and ELOB/C, neddylated in mixed lysates, purified (Ni-NTA, SEC); not shown: His6, N-terminal, …
# Test: SEC; ARIH2 mixed with an equimolar amount of ELOB/C-CUL5(NEDD8)-RBX2 or ELOB/C-CUL5-RBX2, separated by size exclusion; fractions on SDS-PAGE
# Conditions: both partners purified
# T1 sequence (Q93034 whole entry, chain 1 of 2): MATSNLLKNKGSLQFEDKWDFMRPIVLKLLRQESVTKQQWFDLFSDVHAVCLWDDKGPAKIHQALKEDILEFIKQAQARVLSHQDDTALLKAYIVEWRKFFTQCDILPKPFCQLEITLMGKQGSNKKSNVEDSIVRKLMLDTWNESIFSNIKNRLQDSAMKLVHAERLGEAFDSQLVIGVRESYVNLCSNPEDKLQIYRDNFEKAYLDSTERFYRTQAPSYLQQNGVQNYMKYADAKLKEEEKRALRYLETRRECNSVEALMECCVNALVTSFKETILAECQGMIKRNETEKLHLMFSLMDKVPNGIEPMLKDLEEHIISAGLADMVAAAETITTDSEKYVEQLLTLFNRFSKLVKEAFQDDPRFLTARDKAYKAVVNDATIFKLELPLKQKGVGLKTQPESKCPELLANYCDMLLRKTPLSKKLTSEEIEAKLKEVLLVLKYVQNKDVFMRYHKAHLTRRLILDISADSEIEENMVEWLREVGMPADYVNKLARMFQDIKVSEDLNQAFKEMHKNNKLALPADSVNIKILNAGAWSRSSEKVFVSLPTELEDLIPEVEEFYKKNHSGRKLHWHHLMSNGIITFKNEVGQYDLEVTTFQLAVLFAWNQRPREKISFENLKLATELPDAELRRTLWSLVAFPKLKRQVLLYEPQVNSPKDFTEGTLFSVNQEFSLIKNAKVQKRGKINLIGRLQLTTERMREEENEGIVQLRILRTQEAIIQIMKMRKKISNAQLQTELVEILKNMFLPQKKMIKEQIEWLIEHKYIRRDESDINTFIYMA
# T1 sequence (Q15843 1-76, chain 2 of 2): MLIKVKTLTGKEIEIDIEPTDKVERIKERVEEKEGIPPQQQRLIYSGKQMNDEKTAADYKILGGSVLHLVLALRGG
binder,measurement,value
B1,binding result,binds
